Assay results as given in US20100160228A1 (VALTION TEKNILLINEN TUTKIMUSKESKUS, published 2010).

Molecular target: T1, VEGFR1, stably expressed in PAE cells (PAE-Flt1) (UniProt P17948 27-1338, limits assumed)
T1 construct: whole, on cells
Experiment: co-immunoprecipitation with anti-TCPTP from PAE-Flt1 cells transfected with the substrate-trapping mutant, immunoblot
Description: Immunoprecipitations. […] After washings, the immunocomplexes were resolved on SDS-PAGE and subjected to immunoblotting. Aliquots of the original lysates (5% from IP input) were analyzed in parallel to control for protein expression.

T1 sequence (P17948 27-1338 limits assumed): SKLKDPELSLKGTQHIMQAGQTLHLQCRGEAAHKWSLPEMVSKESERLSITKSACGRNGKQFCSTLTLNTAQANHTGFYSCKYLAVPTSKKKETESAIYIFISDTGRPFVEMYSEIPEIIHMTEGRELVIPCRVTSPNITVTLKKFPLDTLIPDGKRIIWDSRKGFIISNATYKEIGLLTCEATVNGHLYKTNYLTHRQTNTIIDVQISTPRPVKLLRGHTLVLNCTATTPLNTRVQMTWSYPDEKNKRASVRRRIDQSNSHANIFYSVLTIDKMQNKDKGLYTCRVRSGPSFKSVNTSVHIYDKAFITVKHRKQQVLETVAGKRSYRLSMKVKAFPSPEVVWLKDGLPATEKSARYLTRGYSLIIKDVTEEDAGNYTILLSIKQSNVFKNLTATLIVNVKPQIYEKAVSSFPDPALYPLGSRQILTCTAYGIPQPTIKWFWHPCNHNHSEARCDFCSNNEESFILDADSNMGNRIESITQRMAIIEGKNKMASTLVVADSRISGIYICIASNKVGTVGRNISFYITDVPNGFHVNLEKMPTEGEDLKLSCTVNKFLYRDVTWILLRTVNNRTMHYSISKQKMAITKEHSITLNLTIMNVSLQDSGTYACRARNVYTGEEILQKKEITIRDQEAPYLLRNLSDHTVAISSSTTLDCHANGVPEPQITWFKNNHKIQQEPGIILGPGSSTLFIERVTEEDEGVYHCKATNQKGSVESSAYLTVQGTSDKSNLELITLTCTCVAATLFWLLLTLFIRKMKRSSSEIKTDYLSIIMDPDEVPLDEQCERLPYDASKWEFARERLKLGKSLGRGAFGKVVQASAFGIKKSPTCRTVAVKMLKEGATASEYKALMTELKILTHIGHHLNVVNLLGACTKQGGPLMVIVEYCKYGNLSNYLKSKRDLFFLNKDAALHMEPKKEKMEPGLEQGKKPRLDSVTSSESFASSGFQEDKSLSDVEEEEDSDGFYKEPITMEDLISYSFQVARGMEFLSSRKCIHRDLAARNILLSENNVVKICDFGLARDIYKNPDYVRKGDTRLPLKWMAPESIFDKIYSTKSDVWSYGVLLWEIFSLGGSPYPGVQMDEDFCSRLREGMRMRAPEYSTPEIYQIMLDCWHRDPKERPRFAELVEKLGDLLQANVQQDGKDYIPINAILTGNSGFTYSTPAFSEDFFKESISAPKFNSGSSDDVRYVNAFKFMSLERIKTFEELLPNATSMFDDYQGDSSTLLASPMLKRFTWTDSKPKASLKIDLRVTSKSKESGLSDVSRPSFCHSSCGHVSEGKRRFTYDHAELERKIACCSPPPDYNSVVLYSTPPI

B1: substrate-trapping mutant of TCPTP (TCPTP-D182A) (enzyme, UniProt P17706-2 1-387, looked up)
chain: MPTTIEREFEELDTQRRWQPLYLEIRNESHDYPHRVAKFPENRNRNRYRDVSPYDHSRVKLQNAENDYINASLVDIEEAQRSYILTQGPLPNTCCHFWLMVWQQKTKAVVMLNRIVEKESVKCAQYWPTDDQEMLFKETGFSVKLLSEDVKSYYTVHLLQLENINSGETRTISHFHYTTWPAFGVPESPASFLNFLFKVRESGSLNPDHGPAVIHCSAGIGRSGTFSLVDTCLVLMEKGDDINIKQVLLNMRKYRMGLIQTPDQLRFSYMAIIEGAKCIKGDSSIQKRWKELSKEDLSPAFDHSPNKIMTEKYNGNRIGLEEEKLTGDRCTGLSSKMQDTMEENSESALRKRIREDRKATTAQKVQQMKQRLNENERKRKRPRLTDT
notes: Expressed by transient transfection in HEK293 or PAE-Flt1 cells and immunoprecipitated from lysates with anti-TCPTP; also called pCG-TC45-D182A; T-cell protein tyrosine phosphatase D182A
B1: no binding.
